Test results as given in the supplement of paper PMC10567573.
± gives the standard deviation.

Test: protein stability index of a GFP-peptide fusion (GPS, HEK-293T) (PSI 1-6); higher = more stable
[1] = treatment: DMSO, c terminus: a fixed tail appended
[2] = treatment: MLN4924 1 uM, 8 h, c terminus: a fixed tail appended
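Also: 24-mer peptide tiles fused after GFP, lentivirally expressed, FACS-sorted into six equal bins by GFP/DsRed ratio, decoded by Illumina sequencing, PSI is the read-weighted mean bin number.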

Row | Sequence | protein stability index [1] | protein stability index [2] | protein stability index (treatment: DMSO, c terminus: native) | protein stability index (treatment: MLN4924 1 uM, 8 h, c terminus: native)
1 | EFNELLSKYQLSEAQLSLIRDIRR [NFE2L1] | 2.57 ± 0.22 | 2.82 ± 0.38 | – | –
2 | IDEVRTQYEEIALKSKAEAEALYQ [KRT71] | 4.77 ± 0.29 | 5.01 ± 0.26 | – | –
3 | VASKMKETIPLTAEKLCIYTDNSI [CCND1] | 3.15 ± 0.42 | 3.33 ± 0.084 | – | –
4 | QCGPQTGLQSPGTLQPPEFLYSHG [TBX5] | 3.41 ± 0.25 | 3.37 ± 0.34 | – | –
5 | DTGLFSRSKSGSEEVLCDSCIGNK [TRIM29] | 4.61 ± 0.1 | 4.92 ± 0.23 | – | –
6 | RRCTNIRPGETGMDVTSRCTLGDP [KLHL20] | 3.99 ± 0.24 | 4.13 ± 0.21 | – | –
7 | TDDPTAGRSNAPITAPTEVEVMDE [CSNK1G3] | 5.67 ± 0.13 | 5.51 ± 0.22 | – | –
8 | EKCKEEFVEEIKKLATQHKQLISQ [ZMYND11] | 4.2 ± 0.28 | 4.06 ± 1.2 | – | –
9 | GEGEPGQGEGPEAGDAEVCPTPAR [NOP53] | 5.71 ± 0.2 | 5.67 ± 0.13 | – | –
10 | PALKECIQGADTIRCVYILDPWFA [CRY1] | 2.95 ± 0.55 | 2.73 ± 0.74 | – | –
11 | QFTSSSSIKGSSGLGGGSSRTSCR [KRT17] | 4.34 ± 0.12 | 4.33 ± 0.26 | – | –
12 | KCRDLSALMHELSNDGARRQFEFY [BTBD10] | 2.06 ± 0.3 | 2.23 ± 0.3 | – | –
13 | ALLKFHTLDSYEDKQKLKRTEIIS [YJU2B] | 2.53 ± 0.3 | 2.53 ± 0.3 | – | –
14 | YYFGPCGKYNAMVLELLGPSLEDL [CSNK1G3] | 3 ± 1.3 | 2.66 ± 0.43 | – | –
15 | SYPRTPHTPGTPKSAILVPSEKKV [MAP2] | 4.6 ± 0.053 | 4.74 ± 0.26 | – | –
16 | RLLQAQLQAQKEELQSLMHQPKGL [PBXIP1] | 2.91 ± 0.14 | 2.9 ± 0.26 | – | –
17 | NLNAATDDPENKKTSSSSKAGFTA [CDC14A] | 5.17 ± 0.16 | 5.02 ± 0.062 | – | –
18 | QQESESEIDSVPKTQSELASESEH [MIA2] | 5.44 ± 0.17 | 5.62 ± 0.15 | – | –
19 | DDLVPKGKKFLLLSINRYERKKNL [ALG2] | 2.58 ± 0.092 | 2.67 ± 0.29 | – | –
20 | KFSYMWTINNFSFCREEMGEVLKS [SPOPL] | 2.34 ± 0.25 | 2.19 ± 0.42 | – | –
21 | SAGIAKLEEGDELQLAIPRENAQI [TNFSF13B] | 5.08 ± 0.25 | 4.97 ± 0.23 | – | –
22 | AEAERLDVKAMGPLVLTEVLFNEK [EIF5] | 4.01 ± 0.2 | 4.17 ± 0.24 | – | –
23 | EDDVSFLMKHKSRKRRLFCTMEPE [TRIM35] | 3.61 ± 0.28 | 3.74 ± 0.19 | – | –

Row | Sequence | protein stability index [1] | protein stability index [2] | protein stability index (treatment: DMSO, c terminus: native) | protein stability index (treatment: MLN4924 1 uM, 8 h, c terminus: native)
24 | AEPLKEDKPVTGPRNKTENGLTPK [ATF6] | 5.5 ± 0.26 | 5.35 ± 0.18 | – | –
25 | KSPQFNRYFYLLENIAWVKSYNIC [PDS5B] | 2.17 ± 0.19 | 2.27 ± 0.14 | – | –
26 | LSSPEFSELCIWLGSQIKSLCNLE [FAM98B] | 2.17 ± 0.81 | 2.76 ± 0.82 | – | –
27 | VLIDLWKITKVMDVRLDREHRVAG [CLPTM1] | 2.49 ± 0.68 | 2.57 ± 0.83 | – | –
28 | SSALACTLPTLPAKVYVGVKQEIA [NCF4] | 3.2 ± 0.2 | 3.1 ± 0.35 | – | –
29 | VTQMNHIPMHIDHDRNMDWVSTQL [FADS1] | 3.14 ± 0.45 | 3.02 ± 0.21 | – | –
30 | GGSSGQVTSNGSIGRDPPAETQPQ [CLPTM1] | 5.47 ± 0.24 | 5.42 ± 0.21 | – | –
31 | KVKPAEAETAGAIMAFFLCLGLAL [SLC29A1] | 2.99 ± 0.62 | 2.86 ± 0.71 | – | –
32 | AGGAGRGEDEENREHRVRRIHVRR [KCTD13] | 5.19 ± 0.16 | 5.34 ± 0.28 | – | –
33 | RGAPPPPPSRAPTAAPPPPPPSRP [WASL] | 5.11 ± 0.19 | 5.17 ± 0.2 | – | –
34 | MKLFLDCLKEFPEKQELHRNMLGL [ZER1] | 2.35 ± 0.11 | 2.4 ± 0.35 | – | –
35 | CMSFNPETRRLSIGLDNGTISEFI [WDFY2] | 2.42 ± 0.56 | 2.89 ± 0.38 | – | –
36 | GGTEEKSSLLMSCLACDTWAVIL [RPAIN] | – | – | 2.7 ± 0.86 | 2.4 ± 0.84
37 | ENEQRRLFIQKEEQLQQILKRKNK [MNAT1] | 4.38 ± 0.18 | 4.21 ± 0.2 | – | –
38 | ILRSQLVTLLVRGVCYSESQSSAS [CLCN6] | 2.88 ± 0.38 | 2.95 ± 0.39 | – | –
39 | VGGVLRGLNHSLSYDVALHRTRLQ [SCARA5] | 2.59 ± 0.18 | 2.84 ± 0.32 | – | –
40 | TLGELKQNLSRSWHDVQVSSAYVK [TPD52L2] | 2.96 ± 0.23 | 3.26 ± 0.27 | – | –
41 | DKENIYILLEYCSRRSMAHILKAR [PLK2] | 2.2 ± 0.29 | 2.55 ± 0.43 | – | –
42 | DTWTLTEEHGLQQERPRPEPGRLG [PXN] | 4.93 ± 0.34 | 4.92 ± 0.19 | – | –
43 | LASQNKPLWQCYLGRFNDINVPIR [PDS5B] | 2.03 ± 0.73 | 2.72 ± 0.058 | – | –
44 | VISKKAKVKVPQKTAGKENHFDMH [ZNF75A] | 3.08 ± 0.24 | 3.06 ± 0.26 | – | –
45 | LAVMGYDRYIAICNPLRYSVLMGH [OR10K2] | 2.55 ± 0.28 | 2.58 ± 0.6 | – | –
46 | SWCLKRYDLEYWAFHDGQRSRLRP [TRIM14] | 2.18 ± 0.25 | 2.33 ± 0.13 | – | –

Row | Sequence | protein stability index [1] | protein stability index [2] | protein stability index (treatment: DMSO, c terminus: native) | protein stability index (treatment: MLN4924 1 uM, 8 h, c terminus: native)
47 | LLPNPYQQDFLGLPEELRRLSGLS [C22orf15] | 2.91 ± 0.17 | 2.91 ± 0.34 | – | –
48 | YLHTNVALVAPLLRLENNHCHIEE [VPS39] | 2.33 ± 0.2 | 2.74 ± 0.34 | – | –
49 | IFMGYQNVEDEAETKKVLGLQDTI [PALM] | 3.27 ± 0.26 | 3.35 ± 0.3 | – | –
50 | RRGRSPKGEFKDEEETVTTKHIHI [CLINT1] | 4.78 ± 0.14 | 4.73 ± 0.26 | – | –
51 | PPGLPAETIKDLMRQFLRGLDFLH [CDK4] | 2.21 ± 0.075 | 2.57 ± 0.7 | – | –
52 | LAALSATISFRIYKSVLQAVQKTD [RTN1] | 2.53 ± 0.76 | 2.28 ± 0.54 | – | –
53 | HTTLQCLAARVIVNHRIYYKGHIP [FEM1C] | 2.43 ± 0.17 | 2.43 ± 0.25 | – | –
54 | ADGRIEPGDMLLQVNEINFENMSN [DVL3] | 3.95 ± 0.33 | 4.36 ± 0.32 | – | –
55 | SPRDLQFSEIRETSAKVNWMPPPS [TNXB] | 3.73 ± 0.23 | 3.69 ± 0.29 | – | –
56 | AAAAKAFKHPSIRNPVSLVVTRLV [ADAMTS4] | 2.22 ± 0.49 | 2.67 ± 0.48 | – | –
57 | GLSAPHSRQIPAPQGAVLVQREKD [KISS1] | 5.34 ± 0.19 | 5.19 ± 0.087 | – | –
58 | LAFRSGSDNLLVILKRKWWKYILL [SLC35F2] | 2.58 ± 0.47 | 1.98 ± 0.54 | – | –
59 | VIYNYVQRPFIRMSWEKEEGKSRH [BTBD10] | 2.24 ± 0.32 | 2.46 ± 0.17 | – | –
60 | EWVLSTGQDKQFAWHCSESGQRLG [WDFY2] | 3.21 ± 0.23 | 3.05 ± 0.2 | – | –
61 | RVAHEPVAPPEDKESESEAKVDGE [CDS2] | 5.47 ± 0.21 | 5.63 ± 0.27 | – | –
62 | AFQAFTNDLLEILEIDDLDAIVPA [CEP70] | 2.73 ± 0.22 | 2.73 ± 0.5 | – | –
63 | KKRVSMILQSPAFCEELESMIQEQ [ADD1] | 3.58 ± 0.27 | 3.76 ± 0.43 | – | –
64 | TIILQQLLPLRTKVAKLLGYSTHA [NLN] | 2.33 ± 0.26 | 1.92 ± 0.39 | – | –
65 | QTVPKRIPERLSIFCRDTQTVFQK [IQUB] | 2.56 ± 0.43 | 2.24 ± 0.31 | – | –
66 | KIKSEEIEITFSYWDGSGHRRTVK [FAM50A] | 2.27 ± 0.21 | 2.43 ± 0.16 | – | –
67 | QKSPWCEARSLEHTLPVNRETLKR [ESR2] | 4.23 ± 0.16 | 4.41 ± 0.21 | – | –
68 | MPHSVTLRGPSPWGFRLVGGRDFS [PDLIM4] | 2.61 ± 0.37 | 2.8 ± 0.23 | – | –
69 | EVLEWYTAKDFIVGKSLTILGRTF [EFHC1] | 3.13 ± 0.62 | 2.62 ± 0.61 | – | –

Row | Sequence | protein stability index [1] | protein stability index [2] | protein stability index (treatment: DMSO, c terminus: native) | protein stability index (treatment: MLN4924 1 uM, 8 h, c terminus: native)
70 | LDLDSIIDEVRTQYEEIALKSKAE [KRT71] | 3.91 ± 0.3 | 4.21 ± 0.57 | – | –
71 | AILQNHTDFKDKIVLDVGCGSGIL [CARM1] | 2.31 ± 0.21 | 2.34 ± 0.25 | – | –
72 | FTNDKIINLPVEEFNELLSKYQLS [NFE2L1] | 2.85 ± 0.28 | 2.76 ± 0.16 | – | –
73 | SQRQAKELKLEQQEAAERESKLLR [LRRC45] | 5.17 ± 0.28 | 5.22 ± 0.1 | – | –
74 | SKSKEEVSSLISEKTNGATPLLMA [FEM1C] | 4.26 ± 0.42 | 4.49 ± 0.24 | – | –
75 | RWSRVGGQRFYSRVLSPLHRGPSG | 2.9 ± 0.27 | 2.72 ± 0.42 | – | –
76 | SEAWEYFHLAPARAGHHPNQYATC [ZBED2] | 2.59 ± 0.26 | 2.58 ± 0.23 | – | –
77 | PQNGSETGWARKGLGNTWPGASGS [ATP23] | 4.32 ± 0.24 | 4.33 ± 0.34 | – | –
78 | ERDLQELSIQVEEERRAREWLLDA [ZMAT5] | 4.54 ± 0.092 | 4.95 ± 0.32 | – | –
79 | PADALQYLLQFARKPVEAESVEGV [INTS4] | 2.9 ± 0.29 | 2.98 ± 0.41 | – | –
80 | SKIPFKILSGHEHAVSTCHFCVDD [WDR88] | 2.91 ± 0.25 | 3.07 ± 0.26 | – | –
81 | ALGCVMYTMLLGRPPFETTNLKET [PLK2] | 2.72 ± 0.74 | 2.79 ± 1.1 | – | –
82 | DDKLFQKLAKVYSYAHGWMFQGWN [CPN1] | 2.45 ± 0.51 | 2.25 ± 0.45 | – | –
83 | WGGAPKEGSIWRGAQMEKEWARAL [ZSWIM9] | 2.8 ± 0.28 | 2.75 ± 0.25 | – | –
84 | VHEHDGHLYLGSFRSPFLCRLSLQ [APMAP] | 2.73 ± 0.51 | 2.33 ± 0.41 | – | –
85 | TLGKVLKVIVVMRSLFIDRTIVKG [MED27] | 3.01 ± 0.66 | 2.74 ± 0.97 | – | –
86 | GYPPFCSETPQETYRKVMNWKETL [STK38L] | 2.88 ± 0.29 | 3.05 ± 0.37 | – | –
87 | VGMNFLHCMAPPLLHLDLKPANIL [RIPK4] | 2.73 ± 0.57 | 2.14 ± 0.63 | – | –
88 | EDVDTSQVLYEWEQGFSQSFTQEQ [CTNNB1] | 5.03 ± 0.23 | 5.07 ± 0.21 | – | –
89 | VSREENREDKATIKCETSPPSSPR [PPFIA4] | 5.49 ± 0.48 | 5.53 ± 0.21 | – | –
